The record followed here is patent publication US20220002431A1.

The target of the test is CD20 on Raji cells (CD20-positive human Burkitt's lymphoma cells) (human) (UniProt P11836). Briefly: cell-based or functional assay.
Sequence of CD20 on Raji cells (CD20-positive human Burkitt's lymphoma cells) (human) (P11836 whole entry): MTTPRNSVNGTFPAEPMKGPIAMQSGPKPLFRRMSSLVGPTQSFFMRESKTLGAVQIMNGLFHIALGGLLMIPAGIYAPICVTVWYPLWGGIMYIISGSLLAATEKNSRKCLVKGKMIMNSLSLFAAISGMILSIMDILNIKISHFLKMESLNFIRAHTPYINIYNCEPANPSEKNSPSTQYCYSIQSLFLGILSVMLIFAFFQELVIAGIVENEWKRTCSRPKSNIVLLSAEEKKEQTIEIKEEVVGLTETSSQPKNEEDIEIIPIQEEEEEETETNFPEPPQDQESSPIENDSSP

Turning to isotype antibody (negative control), the EC50 for killing of Raji-luc cells by CIK effector cells, luciferase read-out is 0.23 µg/mL.
